Measurements: publication PMC4558368

Molecular target: Extracellular region of FcγRIIIa (residues 19-193, V158 allotype) (UniProt P08637)
Assay: SPR

| Kd [µM] | Substance |
| --- | --- |
| > 50 | Human IgG1 Fc D265A (glycosylated variant) (domain or fragment) |
| > 50 | Human IgG1 Fc T299A (aglycosylated variant) (domain or fragment) |
